Test results as given in patent US20140274901A1, “PROANP COMPOSITIONS AND METHODS FOR TREATING ACUTE HEART FAILURE” (Mayo Foundation for Medical Education and Research, priority 2013, published 2014).
Like-named read-outs stand apart in the source and are kept apart here.

What was measured:
in vivo = conditions: dog, iv, 667 pmol/kg
Description: (§3) Blood samples were obtained from aorta and renal vein and urine is obtained before and 2.5, 5, 10, 15, 30, 60, 120, and 180 min after injection. […] These doses were similar to doses of carperitide/nesiritide in clinical use.
(§4) Canine ANP1-28 and NT-proANP concentrations are determined by specific immunoassays as described elsewhere (Ichiki et al., Clin Chem, 2011, 57:40-47; Ichiki et al., 2012, supra; Chen et al., J Am Coll Cardiol, 2000, 35:240A; and Chen et al., Am J Physiol Regul Integr Comp Physiol, 2005, 288:R1093-1097).
(§5) The in vivo effects of canine proANP, ANP1-28, and BNP1-32 were examined in normal canines (FIG. 6).

[1] = Hemodynamic and renal actions after bolus intravenous injection in normal canines; type: in vivo, canine
Description: Blood samples were obtained from aorta and renal vein and urine is obtained before and 2.5, 5, 10, 15, 30, 60, 120, and 180 min after injection.
as §5

[2] = Pharmacokinetic analysis of NP immunoreactivity after bolus intravenous injection in normal canines
Description: as §3, §4, §5

cGMP = assay: Plasma and urinary cGMP after bolus intravenous injection in normal canines; type: in vivo, canine; conditions: for PcGMP AUC / PcGMP Cmax: plasma cGMP; for PcGMP AUC / PcGMP Cmax / UcGMP AUC / UcGMP Cmax: intravenous bolus 667 pmol/kg; for UcGMP AUC / UcGMP Cmax: urinary cGMP excretion
Description: (§1) The samples were ether extracted four times in 4 volumes of ether, dried, and reconstituted in 300 ul cGMP assay buffer, and the cGMP levels were measured using a competitive RIA cGMP kit (Perkin-Elmer, Boston, Mass.).

GC-A = target: T1, GC-A (Homo sapiens, UniProt P16066); assay: cGMP production in HEK293 cells overexpressing GC-A; type: cell-based
T1 construct: expressed in transfected cells; host or cells: HEK293
T1 sequence (P16066 33-1061): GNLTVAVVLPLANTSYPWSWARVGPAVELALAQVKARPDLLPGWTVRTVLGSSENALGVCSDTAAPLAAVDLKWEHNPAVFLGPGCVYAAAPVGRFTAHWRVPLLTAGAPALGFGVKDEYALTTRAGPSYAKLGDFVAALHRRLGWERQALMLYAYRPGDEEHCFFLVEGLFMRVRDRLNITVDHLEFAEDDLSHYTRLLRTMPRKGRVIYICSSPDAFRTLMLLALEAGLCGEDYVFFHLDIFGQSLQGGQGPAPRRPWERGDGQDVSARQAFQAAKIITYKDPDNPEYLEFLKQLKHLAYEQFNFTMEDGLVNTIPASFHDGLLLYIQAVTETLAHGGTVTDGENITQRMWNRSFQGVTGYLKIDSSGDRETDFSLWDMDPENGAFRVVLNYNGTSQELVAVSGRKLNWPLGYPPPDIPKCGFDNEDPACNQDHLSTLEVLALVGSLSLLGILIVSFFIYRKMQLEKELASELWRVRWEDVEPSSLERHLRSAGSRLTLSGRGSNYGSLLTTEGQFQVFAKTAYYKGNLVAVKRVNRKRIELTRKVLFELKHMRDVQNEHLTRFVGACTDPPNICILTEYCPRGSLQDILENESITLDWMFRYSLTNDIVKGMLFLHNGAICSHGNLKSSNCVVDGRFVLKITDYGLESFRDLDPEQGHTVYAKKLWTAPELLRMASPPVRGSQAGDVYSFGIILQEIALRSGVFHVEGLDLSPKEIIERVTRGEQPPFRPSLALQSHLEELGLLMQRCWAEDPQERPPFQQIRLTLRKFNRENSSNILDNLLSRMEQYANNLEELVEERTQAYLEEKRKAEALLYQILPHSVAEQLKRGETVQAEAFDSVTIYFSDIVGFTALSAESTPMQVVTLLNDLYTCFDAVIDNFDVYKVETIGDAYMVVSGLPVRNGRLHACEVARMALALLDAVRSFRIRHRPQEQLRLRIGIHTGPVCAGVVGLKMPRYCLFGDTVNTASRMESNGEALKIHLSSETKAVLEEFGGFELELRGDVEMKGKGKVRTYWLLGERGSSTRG
From the text: (§2) FIGS. 5A-5D depict proANP effects in vitro. FIG. 5A is a pair of graphs plotting cGMP production in GC-A or GC-B overexpressing HEK293 cells treated with proANP, proBNP, or mature ANP or BNP, as indicated. *p<0.05 vs. non-treated cells. FIG. 5B is a pair of graphs plotting cGMP production in GC-A or GC-B overexpressing HEK293 cells treated with proANP (10^−8 M) in serum or PBS, as indicated. *p<0.05 vs. non-treated cells. †p<0.05 vs. PBS-treated proANP. FIG. 5C is a series of photographs showing immunocytochemistry for collagen type I (Col I), GC-A, and corin in cardiac fibroblasts (CFs). NHS served as a negative control. Magnification is 100×. FIG. 5D is a graph plotting the time course of cGMP production in CFs treated with ANP or proANP (10^−7M). […] Data are mean±SEM.
as §1

[3] = Processing and degradation of His-tagged proANP in human serum ex vivo
Description: Exogenous proANP was incubated in human serum at 37° C. Processed and unprocessed proANP peptides were isolated by immunoprecipitation using His-tag beads, followed by detection via Western blotting with 6×His antibody. […] FIG. 4C is a graph plotting densitometric analysis of processed ANP1-28 from proANP that was incubated in serum from normal subjects and HF patients for the indicated times. Values are mean±SEM. *p<0.05 vs. 0 min.

[4] = test system: human cardiac fibroblasts (CFs); assay: cGMP production in human cardiac fibroblasts; type: cell-based; conditions: 10^−7 M
From the text: as §2, §1
Further studies utilized human CFs in which GC-A and proANP convertase corin exist (FIG. 5C).

[5] = 667 pmol/kg intravenous, comparison of the three NPs
[6] = normal canines, 667 pmol/kg intravenous

For `CC[C@H](C)[C@@H]1NC(=O)[C@H](CCCNC(=N)N)NC(=O)[C@H](CC(=O)O)NC(=O)[C@H](CCSC)NC(=O)[C@H](CCCNC(=N)N)NC(=O)CNC(=O)CNC(=O)[C@H](Cc2ccccc2)NC(=O)[C@@H](NC(=O)[C@H](CO)NC(=O)[C@H](CO)NC(=O)[C@H](CCCNC(=N)N)NC(=O)[C@H](CCCNC(=N)N)NC(=O)[C@H](CC(C)C)NC(=O)[C@@H](N)CO)CSSC[C@@H](C(=O)N[C@@H](CC(N)=O)C(=O)N[C@@H](CO)C(=O)N[C@@H](Cc2ccccc2)C(=O)N[C@@H](CCCNC(=N)N)C(=O)N[C@@H](Cc2ccc(O)cc2)C(=O)O)NC(=O)CNC(=O)[C@H](CC(C)C)NC(=O)CNC(=O)[C@H](CO)NC(=O)[C@H](CCC(N)=O)NC(=O)[C@H](C)NC(=O)CNC1=O` [ANP, atrial natriuretic peptide], the AUC (in vivo) was 0.2 nM·h and the Tmax (in vivo) was 2 min.

For `CC[C@H](C)[C@@H]1NC(=O)[C@H](CCCNC(=N)N)NC(=O)[C@H](CC(=O)O)NC(=O)[C@H](CCSC)NC(=O)[C@H](CCCCN)NC(=O)[C@H](CCCNC(=N)N)NC(=O)CNC(=O)[C@H](Cc2ccccc2)NC(=O)[C@@H](NC(=O)CNC(=O)[C@H](CO)NC(=O)CNC(=O)[C@H](CCC(N)=O)NC(=O)[C@@H](NC(=O)[C@H](CCSC)NC(=O)[C@H](CCCCN)NC(=O)[C@@H]2CCCN2C(=O)[C@@H](N)CO)C(C)C)CSSC[C@@H](C(=O)N[C@@H](CCCCN)C(=O)N[C@H](C(=O)N[C@@H](CC(C)C)C(=O)N[C@@H](CCCNC(=N)N)C(=O)N[C@@H](CCCNC(=N)N)C(=O)N[C@@H](Cc2c[nH]cn2)C(=O)O)C(C)C)NC(=O)CNC(=O)[C@H](CC(C)C)NC(=O)CNC(=O)[C@H](CO)NC(=O)[C@H](CO)NC(=O)[C@H](CO)NC(=O)[C@H](CO)NC1=O` [BNP, B-type natriuretic peptide, reference compound], the “effect on blood pressure (BP)” value [1, 5] was “greatest effect”, the AUC ([2]; dog, plasma, iv, 667 pmol/kg) was 0.0517 nM·h and the Cmax ([2]; dog, plasma, iv, 667 pmol/kg) was 0.43 nM. For the same molecule, the Tmax ([2]; dog, plasma, iv, 667 pmol/kg) was 2 min, the half-life ([2]; dog, plasma, iv, 667 pmol/kg) was 3.7 min and the “decline of plasma immunoreactivity after the peak” value [2, 6] was “decreased rapidly”. For the same molecule, the “PcGMP AUC” value (cGMP) was 13406.9 pmol·min/mL, the “PcGMP Cmax” value (cGMP) was 255.4 pmol/mL and the “UcGMP AUC” value (cGMP) was 207454 pmol·min/mL. The “UcGMP Cmax” value (cGMP) was 6936.2 pmol/mL.

B1: proANP (protein, listed as Homo sapiens)
chain: NPMYNAVSNADLMDFKNLLDHLEEKMPLEDEVVPPQVLSEPNEEAGAALSPLPEVPPWTGEVSPAQRDGGALGRGPWDSSDRSALLKSKLRALLTAPRSLRRSSCFGGRMDRIGAQSGLGCNSFRY
modifications: His tag in serum
notes: 126 amino acid pro form of atrial natriuretic peptide
For B1, the cGMP production (GC-A; HEK293 cells overexpressing GC-A) was “lower than ANP but much higher than proBNP”, the “cGMP production by proANP treated in serum for 5 minutes” value (GC-A; proANP 10^−8 M, treated in serum 5 minutes, versus untreated proANP) was “stimulated cGMP production significantly as compared to untreated proANP” and the “cGMP production by proANP treated in serum for 180 minutes” value (GC-A; proANP 10^−8 M, treated in serum 180 minutes) was “decreased”. The “effect on cardiac output” value ([1]; 667 pmol/kg intravenous) was “less than that of either ANP or BNP”, the “effect on renal blood flow” value ([1]; 667 pmol/kg intravenous) was “less effect on renal blood flow” and the “diuretic and natriuretic actions (urine volume, urinary sodium excretion)” value [1, 5] was “strongest and longest”. The “effect on blood pressure (BP)” value [1, 5] was “less of an effect on BP as compared to the other two NPs”, the “effect on heart rate” value ([1]; first 90 minutes, then increased by about 120 minutes) was “less than that of ANP or BNP” and the “NPi AUC” value ([2]; NP immunoreactivity, normal canines, equimolar intravenous bolus 667 pmol/kg) was 28.1 pmol·min/mL. For the same molecule, the “AUC for NP immunoreactivity relative to ANP” value [2, 6] was “twice that of ANP”, the “decline of plasma immunoreactivity after the peak” value [2, 6] was “decreased more slowly than ANP or BNP” and the “time of peak plasma immunoreactivity after injection” value [2, 6] was 2 min. For the same molecule, the half-life ([2]; normal canines, equimolar intravenous bolus 667 pmol/kg) was 20.7 min, the “half-life relative to ANP” value ([2]; normal canines, pharmacokinetic analysis) was “about 4 times” and the Cmax ([2]; read-out: NPi Cmax, NP immunoreactivity, normal canines, equimolar intravenous bolus 667 pmol/kg) was 0.96 nM. For the same molecule, the “AUC for plasma cGMP (PcGMP) relative to ANP or BNP” value (cGMP; 667 pmol/kg intravenous) was “less than that for ANP or BNP”, the “AUC for urinary cGMP excretion (UcGMP) relative to ANP or BNP” value (cGMP; 667 pmol/kg intravenous) was “twice that of ANP or BNP” and the “PcGMP AUC” value (cGMP) was 6110.5 pmol·min/mL. The “PcGMP Cmax” value (cGMP) was 93.8 pmol/mL, the “UcGMP AUC” value (cGMP) was 420368 pmol·min/mL and the “UcGMP Cmax” value (cGMP) was 7027.8 pmol/mL. For the same molecule, the “processing of proANP in normal human serum” value ([3]; His-tagged proANP, 37° C., 5 minute incubation, normal serum) was “processed into ANP1-28”, the “proANP processing into ANP1-28 in HF serum compared to normals” value ([3]; serum from HF patients) was “preserved” and the “cGMP production relative to ANP” value ([4]; after 60 minutes) was “about equal”. The “cGMP levels compared to 0 minutes” value ([4]; all time points) was “significant increases in cGMP levels” and the “cGMP production relative to ANP” value ([4]; first 30 minutes) was “about half as much as ANP”.
